Source: paper PMC10397247

Assays:
[1] = target: T1, P12; assay: two-hybrid library CC1;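 note: natural log of median RNA to DNA barcode read ratio; higher means stronger binding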
T1 chain: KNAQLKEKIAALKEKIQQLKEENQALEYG

[2] = target: T2, P3; assay: two-hybrid library CC1; details: mean of both orientations;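 note: natural log of median RNA to DNA barcode read ratio; higher means stronger binding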
T2 chain: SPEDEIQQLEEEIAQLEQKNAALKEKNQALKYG

[3] = target: T3, P3mS; assay: two-hybrid library CC1; details: mean of both orientations;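 note: natural log of median RNA to DNA barcode read ratio; higher means stronger binding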
T3 chain: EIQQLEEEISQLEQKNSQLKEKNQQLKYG

[4] = target: T4, P4; assay: two-hybrid library CC1; details: mean of both orientations;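 note: natural log of median RNA to DNA barcode read ratio; higher means stronger binding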
T4 chain: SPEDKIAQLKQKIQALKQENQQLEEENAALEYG

[5] = target: T5, P4mS; assay: two-hybrid library CC1; details: mean of both orientations;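 note: natural log of median RNA to DNA barcode read ratio; higher means stronger binding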
T5 chain: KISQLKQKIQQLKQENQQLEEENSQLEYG

[6] = target: T6, P5SC1; assay: two-hybrid library CC1; details: mean of both orientations;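 note: natural log of median RNA to DNA barcode read ratio; higher means stronger binding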
T6 chain: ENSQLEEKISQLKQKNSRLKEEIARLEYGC

[7] = target: T7, P5SC2; assay: two-hybrid library CC1; details: mean of both orientations
T7 chain: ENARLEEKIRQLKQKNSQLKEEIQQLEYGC

[8] = target: T8, P5; assay: two-hybrid library CC1; details: mean of both orientations
T8 chain: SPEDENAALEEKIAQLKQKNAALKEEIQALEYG

[9] = target: T9, P5mS; assay: two-hybrid library CC1; details: mean of both orientations
T9 chain: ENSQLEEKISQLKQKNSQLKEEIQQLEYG

[10] = target: T10, P6SC1; assay: two-hybrid library CC1; details: mean of both orientations
T10 chain: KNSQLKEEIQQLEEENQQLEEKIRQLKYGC

[11] = target: T11, P6SC2; assay: two-hybrid library CC1; details: mean of both orientations
T11 chain: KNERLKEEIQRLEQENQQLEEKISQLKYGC

[12] = target: T12, P6; assay: two-hybrid library CC1; details: mean of both orientations
T12 chain: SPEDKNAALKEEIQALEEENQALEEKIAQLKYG

[13] = target: T13, P6mS; assay: two-hybrid library CC1; details: mean of both orientations
T13 chain: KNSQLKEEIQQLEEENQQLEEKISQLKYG

[14] = target: T14, P7; assay: two-hybrid library CC1; details: mean of both orientations
T14 chain: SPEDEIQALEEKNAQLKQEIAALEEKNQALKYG

[15] = target: T15, P7mS; assay: two-hybrid library CC1; details: mean of both orientations
T15 chain: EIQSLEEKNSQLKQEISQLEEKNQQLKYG

[16] = target: T16, P8; assay: two-hybrid library CC1; details: mean of both orientations
T16 chain: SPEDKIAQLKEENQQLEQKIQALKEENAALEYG

[17] = target: T17, P8mS; assay: two-hybrid library CC1; details: mean of both orientations
T17 chain: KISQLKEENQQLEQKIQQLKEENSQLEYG

[18] = target: T18, P9; assay: two-hybrid library CC1; details: mean of both orientations
T18 chain: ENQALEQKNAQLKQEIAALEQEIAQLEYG

[19] = target: T19, P11mS; assay: two-hybrid library CCNG1
T19 chain: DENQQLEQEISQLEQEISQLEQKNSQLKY

[20] = target: T20, P12mS; assay: two-hybrid library CCNG1
T20 chain: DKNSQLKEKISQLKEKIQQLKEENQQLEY

[21] = target: T21, P3mS; assay: two-hybrid library CCNG1
T21 chain: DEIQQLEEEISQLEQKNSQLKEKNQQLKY

[22] = target: T22, P4mS; assay: two-hybrid library CCNG1
T22 chain: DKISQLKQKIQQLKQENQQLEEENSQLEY

[23] = target: T23, P5mS; assay: two-hybrid library CCNG1
T23 chain: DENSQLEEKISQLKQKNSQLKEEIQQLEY

[24] = target: T24, P6mS; assay: two-hybrid library CCNG1
T24 chain: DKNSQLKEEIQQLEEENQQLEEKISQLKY

[25] = target: T25, P7mS; assay: two-hybrid library CCNG1
T25 chain: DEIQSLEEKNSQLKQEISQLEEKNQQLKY

[26] = target: T26, P8mS; assay: two-hybrid library CCNG1
T26 chain: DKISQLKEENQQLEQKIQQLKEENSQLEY

[27] = target: T27, P9mS; assay: two-hybrid library CCNG1
T27 chain: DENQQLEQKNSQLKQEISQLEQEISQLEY

[28] = target: T28, 4H2568-bA; assay: two-hybrid library CCNG1
T28 chain: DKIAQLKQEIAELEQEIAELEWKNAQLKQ

[29] = target: T29, 4H2619-bA; assay: two-hybrid library CCNG1
T29 chain: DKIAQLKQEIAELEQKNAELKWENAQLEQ

[30] = target: T30, 4H2745-bA; assay: two-hybrid library CCNG1
T30 chain: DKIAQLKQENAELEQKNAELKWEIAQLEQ

[31] = target: T31, 4H344-bA; assay: two-hybrid library CCNG1
T31 chain: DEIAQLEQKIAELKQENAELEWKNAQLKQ

[32] = target: T32, 4H363-bA; assay: two-hybrid library CCNG1
T32 chain: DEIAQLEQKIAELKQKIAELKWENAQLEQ

[33] = target: T33, 4H3907-bA; assay: two-hybrid library CCNG1
T33 chain: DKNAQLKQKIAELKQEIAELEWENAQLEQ

[34] = target: T34, 4H3961-bA; assay: two-hybrid library CCNG1
T34 chain: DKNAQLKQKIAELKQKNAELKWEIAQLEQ

[35] = target: T35, 4H470-bA; assay: two-hybrid library CCNG1
T35 chain: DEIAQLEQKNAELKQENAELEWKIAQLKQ

[36] = target: T36, 4H_APH3; assay: two-hybrid library CCmax
T36 chain: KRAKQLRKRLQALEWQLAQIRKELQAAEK

[37] = target: T37, 4H_APH; assay: two-hybrid library CCmax
T37 chain: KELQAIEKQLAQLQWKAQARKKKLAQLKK

[38] = target: T38, 4H_BCR; assay: two-hybrid library CCmax; details: mean of both orientations
T38 chain: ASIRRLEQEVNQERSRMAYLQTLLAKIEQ

[39] = target: 4H_GCN4; assay: two-hybrid library CCmax
Chain of 4H_GCN4 (chain, as listed by the source): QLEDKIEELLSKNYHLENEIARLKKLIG

[40] = target: T39, AP1-AA; assay: two-hybrid library CCmax
T39 chain: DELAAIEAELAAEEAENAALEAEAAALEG

[41] = target: T40, AP2-AA; assay: two-hybrid library CCmax
T40 chain: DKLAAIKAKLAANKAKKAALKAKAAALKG

[42] = target: T41, AP3-AA; assay: two-hybrid library CCmax
T41 chain: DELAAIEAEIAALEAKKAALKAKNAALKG

[43] = target: T42, AP4-AA; assay: two-hybrid library CCmax; details: mean of both orientations
T42 chain: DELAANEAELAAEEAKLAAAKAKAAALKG

[44] = target: T43, AP5-AA; assay: two-hybrid library CCmax; details: mean of both orientations
T43 chain: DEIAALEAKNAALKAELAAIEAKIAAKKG

[45] = target: T44, AP6-AA; assay: two-hybrid library CCmax; details: mean of both orientations
T44 chain: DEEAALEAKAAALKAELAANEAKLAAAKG

[46] = target: T45, AP7-AA; assay: two-hybrid library CCmax; details: mean of both orientations
T45 chain: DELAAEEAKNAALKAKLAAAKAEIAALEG

[47] = target: T46, AP8-AA; assay: two-hybrid library CCmax; details: mean of both orientations
T46 chain: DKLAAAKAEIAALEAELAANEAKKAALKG

[48] = target: GCN2_T; assay: two-hybrid library CCmax
[49] = target: T47, O11-AA; assay: two-hybrid library CCmax; details: mean of both orientations
T47 chain: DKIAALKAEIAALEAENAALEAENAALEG

[50] = target: T48, O13-AA; assay: two-hybrid library CCmax; details: mean of both orientations
T48 chain: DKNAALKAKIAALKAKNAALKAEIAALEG

[51] = target: T49, O14-AA; assay: two-hybrid library CCmax; details: mean of both orientations
T49 chain: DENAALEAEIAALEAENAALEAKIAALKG

[52] = target: T50, P1-AA; assay: two-hybrid library CCmax; details: mean of both orientations
T50 chain: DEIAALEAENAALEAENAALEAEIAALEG

[53] = target: T51, P10-AA; assay: two-hybrid library CCmax; details: mean of both orientations
T51 chain: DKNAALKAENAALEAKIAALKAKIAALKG

[54] = target: T52, P11-AA; assay: two-hybrid library CCmax; details: mean of both orientations
T52 chain: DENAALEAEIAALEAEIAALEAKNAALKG

[55] = target: T53, P12-AA; assay: two-hybrid library CCmax; details: mean of both orientations
T53 chain: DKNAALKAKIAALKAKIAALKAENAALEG

[56] = target: T54, P2-AA; assay: two-hybrid library CCmax
T54 chain: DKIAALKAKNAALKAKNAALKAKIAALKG

[57] = target: T55, P3-AA; assay: two-hybrid library CCmax
T55 chain: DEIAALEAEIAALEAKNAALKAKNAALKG

[58] = target: T56, P4-AA; assay: two-hybrid library CCmax; details: mean of both orientations
T56 chain: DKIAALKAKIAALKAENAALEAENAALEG

[59] = target: T57, P7-AA; assay: two-hybrid library CCmax
T57 chain: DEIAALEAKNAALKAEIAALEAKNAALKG

[60] = target: T58, P8-AA; assay: two-hybrid library CCmax; details: mean of both orientations
T58 chain: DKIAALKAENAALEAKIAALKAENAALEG

[61] = target: T59, P9-AA; assay: two-hybrid library CCmax
T59 chain: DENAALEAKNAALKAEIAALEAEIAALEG

[62] = target: T60, zCON9_A; assay: two-hybrid library CCmax
T60 chain: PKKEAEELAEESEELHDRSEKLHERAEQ

[63] = target: T61, zCON9_B; assay: two-hybrid library CCmax; details: mean of both orientations
T61 chain: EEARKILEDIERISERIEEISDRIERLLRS

[64] = target: T62, zCON9_D; assay: two-hybrid library CCmax
T62 chain: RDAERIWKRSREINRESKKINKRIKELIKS

KNAQLKEKIAALKEKIQQLKEENQALEYG [P12]
interaction score [1]: -2.73
interaction score [2]: 0.183
interaction score [3]: -0.884
interaction score [4]: -2.97
interaction score [5]: -2.91
interaction score [6]: -2.96
interaction score [7]: -2.9
interaction score [8]: -2.87
interaction score [9]: -2.78
interaction score [10]: -2.44
interaction score [11]: -2.47
interaction score [12]: -2.42
interaction score [13]: -2.73
interaction score [14]: -2.41
interaction score [15]: -2.85
interaction score [16]: -2.9
interaction score [17]: -2.85
interaction score [18]: -1.37

DENQQLEQEISQLEQEISQLEQKNSQLKY [P11mS]
interaction score [19]: -0.707
interaction score [20]: 1.52
interaction score [21]: -0.646
interaction score [22]: 0.774
interaction score [23]: 0.261
interaction score [24]: -0.739
interaction score [25]: -0.84
interaction score [26]: -0.0076
interaction score [27]: -0.542

DKIAQLKQEIAELEQEIAELEWKNAQLKQ [4H2568-bA]
interaction score [28]: 1.94
interaction score [29]: 0.254
interaction score [30]: -0.347
interaction score [31]: 0.491
interaction score [32]: 0.53
interaction score [33]: 1.89
interaction score [34]: 2.32
interaction score [35]: -0.973

DKNSQLKEKISQLKEKIQQLKEENQQLEY [P12mS]
interaction score [20]: -1.27
interaction score [21]: 0.362
interaction score [22]: -0.954
interaction score [23]: -1.57
interaction score [24]: -0.944
interaction score [25]: -0.947
interaction score [26]: -0.844
interaction score [27]: -0.472

KELQAIEKQLAQLQWKAQARKKKLAQLKK [4H_APH]
interaction score [36]: -1.54
interaction score [37]: -2.1
interaction score [38]: -1.64
interaction score [39]: -2.22
interaction score [40]: -1.47
interaction score [41]: -1.63
interaction score [42]: -1.35
interaction score [43]: -1.31
interaction score [44]: -2.21
interaction score [45]: -2.09
interaction score [46]: -2.03
interaction score [47]: -1.48
interaction score [48]: -2.07
interaction score [49]: -1.39
interaction score [50]: -1.81
interaction score [51]: -1.65
interaction score [52]: -2.11
interaction score [53]: -1.47
interaction score [54]: -1.03
interaction score [55]: -1.3
interaction score [56]: -1.82
interaction score [57]: -0.728
interaction score [58]: -1.9
interaction score [59]: -1.87
interaction score [60]: -1.89
interaction score [61]: -1.86
interaction score [62]: -1.26
interaction score [63]: -2.09
interaction score [64]: -1.96
